# Assays:
# [1] = target: AUF1 (RNA-binding domain on protein array) (human, UniProt Q14103 97-261); experiment: protein microarray; FP: 20 mM HEPES pH 7.0, 150 mM NaCl, 2 mM MgCl2, 10 mM DTT, 1 U/ul RiboLock, 5 min at room temperature; NMR: 20 mM HEPES pH 7.0, 15 mM NaCl, 0.5 mM TCEP, 0.02%; settings: protein: recombinant; label: 5' biotin
# [2] = target: NCL (RNA-binding domain on protein array) (human, UniProt P19338 307-647); experiment: as above; settings: protein: recombinant; label: 5' biotin
# His-Nsp9 = His-Nsp9 (SARS-CoV-2, UniProt P0DTD1 4141-4253); experiment: fluorescence polarization; 100 nM RNA; FP: 20 mM HEPES pH 7.0, 150 mM NaCl, 2 mM MgCl2, 10 mM DTT, 1 U/ul RiboLock, 5 min at room temperature; NMR: 20 mM HEPES pH 7.0, 15 mM NaCl, 0.5 mM TCEP, 0.02%; settings: protein: recombinant; tags: His; chain copies: 2; label: 3' Cy3
# Chain of AUF1 (RNA-binding domain on protein array) (Q14103 97-261): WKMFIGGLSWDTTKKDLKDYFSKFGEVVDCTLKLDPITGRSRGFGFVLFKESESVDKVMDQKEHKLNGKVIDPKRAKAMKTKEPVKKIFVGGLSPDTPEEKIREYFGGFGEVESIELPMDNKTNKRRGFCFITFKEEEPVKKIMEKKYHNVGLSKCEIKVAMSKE
# Chain of NCL (RNA-binding domain on protein array) (P19338 307-647): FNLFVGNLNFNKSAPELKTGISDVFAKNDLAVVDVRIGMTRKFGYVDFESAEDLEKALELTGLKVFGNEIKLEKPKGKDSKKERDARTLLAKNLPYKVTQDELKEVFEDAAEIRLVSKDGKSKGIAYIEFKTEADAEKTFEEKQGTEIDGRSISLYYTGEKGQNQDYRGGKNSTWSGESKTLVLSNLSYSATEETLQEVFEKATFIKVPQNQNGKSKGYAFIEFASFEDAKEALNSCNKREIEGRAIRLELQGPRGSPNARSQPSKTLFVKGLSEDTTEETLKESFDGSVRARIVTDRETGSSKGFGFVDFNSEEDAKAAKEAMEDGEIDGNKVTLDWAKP
Binder,binding result (His-Nsp9),Kd (His-Nsp9) [nM],other results
UGAGGUAGUAGGUUGUGUGGUU (ssRNA) [let-7b-biotin],–,–,binding result [1]: binds; binding result [2]: binds
"UGAGGUAGUAGGUUGCCAUUAU (ssRNA, 5' phosphate) [mutant let-7b-Cy3]",no binding,–,–
"UGAGGUAGUAGGUUGUGUGGUU (ssRNA, 5' phosphate) [let-7b-Cy3]",–,~15,–
"CAGUGCAAUGAUGAAAGGGCAU (ssRNA, 5' phosphate) [miR-130b-Cy3]",–,~63,–
"UAGCUUAUCAGACUGAUGUUGA (ssRNA, 5' phosphate) [miR-21-Cy3]",no binding,–,–
